According to publication doi:10.1101/2025.11.07.687251 (2025):

B1: GFP-ATG13(1–230):ATG101 [human] / GST-WIPI3 [not stated] (parent complex)
chain 1: METDLNSQDRKDLDKFIKFFALKTVQVIVQARLGEKICTRSSSSPTGSDWFNLAIKDIPEVTHEAKKALAGQLPAVGRSMCVEISLKTSEGDSMELEIWCLEMNEKCDKEIKVSYTVYNRLSLLLKSLLAITRVTPAYRLSRKQGHEYVILYRIYFGEVQLSGLGEGFQTVRVGTVGTPVGTITLSCAYRINLAFMSTRQFERTPPIMGIIIDHFVDRPYPSSSPMHPCN
chain 2: MNCRSEVLEVSVEGRQVEEAMLAVLHTVLLHRSTGKFHYKKEGTYSIGTVGTQDVDCDFIDFTYVRVSSEELDRALRKVVGEFKDALRNSGGDGLGQMSLEFYQKKKSRWPFSDECIPWEVWTVKVHVVALATEQERQICREKVGEKLCEKIINIVEVMNRHEYLPKMPTQSEVDNVFDTGLRDVQPYLYKISFQITDALGTSVTTTMRRLIKDTLAL
chain 3: not shown
B2: GFP-ATG13(1–230):ATG101 [human] / GST-WIPI2 [not stated] (parent complex)
chain 1: B1 chain 1
chain 2: B1 chain 2
chain 3: MNLASQSGEAGAGQLLFANFNQDNTSLAVGSKSGYKFFSLSSVDKLEQIYECTDTEDVCIVERLFSSSLVAIVSLKAPRKLKVCHFKKGTEICNYSYSNTILAVKLNRQRLIVCLEESLYIHNIRDMKVLHTIRETPPNPAGLCALSINNDNCYLAYPGSATIGEVQVFDTINLRAANMIPAHDSPLAALAFDASGTKLATASEKGTVIRVFSIPEGQKLFEFRRGVKRCVSICSLAFSMDGMFLSASSNTETVHIFKLETVKEKPPEEPTTWTGYFGKVLMASTSYLPSQVTEMFNQGRAFATVRLPFCGHKNICSLATIQKIPRLLVGAADGYLYMYNLDPQEGGECALMKQHRLDGSLETTNEILDSASHDCPLVTQTYGAAAGKAYTDDLGAVGGACLEDEASALRLDEDSEHPPMILRTD

Variants of: B1
Test: GST beads binding assay (microscopy-based, Glutathione Sepharose beads); 0.5 μM GST bait; 20 mM HEPES (pH 7.5), 200 mM NaCl, 2 mM MgCl2, 1 mM TCEP; room temperature, 60 minutes; read off a plot

| response | Variant |
| --- | --- |
| ~12000 A.U. | chain 1 H214D, chain 1 F215D |

Variants of: B2
Test: GST beads binding assay (microscopy-based, Glutathione Sepharose beads); 20 mM HEPES (pH 7.5), 200 mM NaCl, 2 mM MgCl2, 1 mM TCEP; room temperature, 60 minutes; read off a plot

| response | Variant |
| --- | --- |
| ~21000 A.U. | chain 1 H214D, chain 1 F215D |
